{"source": "patent US20180200383A1", "binders": {"B1": {"name": "IMGN853 (immunoconjugate of antibody huMov19, sulfo-SPDB and DM4) (antibody, from a related filing, V domains shown, part only)", "VH": "QVQLVQSGAEVVKPGASVKISCKASGYTFTGYFMNWVKQSPGQSLEWIGRIHPYDGDTFYNQKFQGKATLTVDKSSNTAHMELLSLTSEDFAVYYCTRYDGSRAMDYWGQGTTVTVSS", "VL": "DIVLTQSPLSLAVSLGQPAIISCKASQSVSFAGTSLMHWYHQKPGQQPRLLIYRASNLEAGVPDRFSGSGSKTDFTLTISPVEAEDAATYYCQQSREYPYTFGGGTKLEIKR"}}, "molecular_target": "human folate receptor 1 (FOLR1) (human) (UniProt P15328)", "sequence (P15328 25-234 limits assumed, form in doubt)": "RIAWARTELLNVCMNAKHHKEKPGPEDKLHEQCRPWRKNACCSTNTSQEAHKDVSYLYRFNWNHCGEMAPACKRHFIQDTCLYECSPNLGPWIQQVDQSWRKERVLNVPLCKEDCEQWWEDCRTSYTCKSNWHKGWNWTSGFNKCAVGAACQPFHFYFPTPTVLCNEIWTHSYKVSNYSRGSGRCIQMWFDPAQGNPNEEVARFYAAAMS", "assay": "cell-based or functional assay", "data": [{"binder": "B1", "values": [{"measurement": "IC50 of cytotoxicity on Jeg-3 cells (5 days, WST-8)", "value": 1, "unit": "nM"}]}]}
